The results in this text go back to patent US20220289850 (published 2022).

The labels stand for the following.
B1: ADWA11 VH05/VK01 (VH05-2_VK01) Fab (antibody, V domains shown)
VH: EVQLVESGGGLVQPGGSLRLSCAASGFNIKDYYMNWVRQAPGKGLEWVGWIDPDNGNTIYDPKFQGRFTISADTSKNSAYLQMNSLRAEDTAVYYCARRLLMDYWGQGTLVTVSS
VL: DIQMTQSPSSLSASVGDRVTITCRSTKSLLHFNGNTYLFWYQQKPGKAPKRLIYYMSNLASGVPSRFSGSGSGTDFTLTISSLQPEDFATYYCMQSLEYPFTFGQGTKVEIK
B2: ADWA11 2.4 Fab (antibody, V domains shown)
VH: B1 VH with N55Q, D61E
VL: B1 VL with L30S, N58S, M94Q, Q105G
B3: Mouse hybridoma ADWA-11 Fab (antibody, V domains shown)
VH: EVQLQQSGAELVRPGAFVKLSCKASGFNIKDYYMNWVLQRPEQGLEWIGWIDPDNGNTIYDPKFQGKASITADTSSNTAYLQLSSLTSEDTAVYYCARRLLMDYWGQGTSVTVSS
VL: DIVMTQAAPSVPVTPGESVSISCRSTKSLLHFNGNTYLFWFLQRPGQSPQRLIYYMSNLASGVPDRFSGRGSGTDFTLRISRVEAEDVGVYYCMQSLEYPFTFGTGTKLEIK

Changes are numbered by the printed parent chain. Where “and” joins values, the source holds several entries; their conditions need not be identical. Equal values may be shown once.

The assay deals with T1, mouse integrin avb8 (mouse).
T1 chain 1: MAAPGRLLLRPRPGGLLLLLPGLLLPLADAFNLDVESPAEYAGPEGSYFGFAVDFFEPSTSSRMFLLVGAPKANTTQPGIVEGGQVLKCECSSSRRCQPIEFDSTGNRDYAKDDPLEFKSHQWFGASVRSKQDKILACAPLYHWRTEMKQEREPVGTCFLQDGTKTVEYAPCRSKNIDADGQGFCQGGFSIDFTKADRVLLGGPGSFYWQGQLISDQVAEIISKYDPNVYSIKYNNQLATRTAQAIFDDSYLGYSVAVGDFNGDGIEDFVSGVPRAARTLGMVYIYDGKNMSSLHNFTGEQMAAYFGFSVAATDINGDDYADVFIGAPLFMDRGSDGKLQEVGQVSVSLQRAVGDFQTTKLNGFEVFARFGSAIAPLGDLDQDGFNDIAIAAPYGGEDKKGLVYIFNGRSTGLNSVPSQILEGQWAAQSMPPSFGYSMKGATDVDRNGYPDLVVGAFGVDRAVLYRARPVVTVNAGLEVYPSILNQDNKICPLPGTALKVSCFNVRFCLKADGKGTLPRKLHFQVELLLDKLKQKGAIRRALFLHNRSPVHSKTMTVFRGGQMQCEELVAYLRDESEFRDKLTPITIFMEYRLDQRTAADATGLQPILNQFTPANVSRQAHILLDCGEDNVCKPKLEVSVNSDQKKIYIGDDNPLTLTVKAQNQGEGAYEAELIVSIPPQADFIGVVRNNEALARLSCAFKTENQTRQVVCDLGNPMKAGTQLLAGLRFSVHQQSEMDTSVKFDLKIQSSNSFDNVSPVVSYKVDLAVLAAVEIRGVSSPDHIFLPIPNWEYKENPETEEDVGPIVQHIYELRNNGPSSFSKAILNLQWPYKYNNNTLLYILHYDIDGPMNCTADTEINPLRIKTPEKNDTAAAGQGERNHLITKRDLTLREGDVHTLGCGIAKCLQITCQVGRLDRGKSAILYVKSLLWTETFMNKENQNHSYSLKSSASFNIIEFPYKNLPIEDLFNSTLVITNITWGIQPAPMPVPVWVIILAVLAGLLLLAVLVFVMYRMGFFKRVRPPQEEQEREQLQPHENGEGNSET
T1 chain 2: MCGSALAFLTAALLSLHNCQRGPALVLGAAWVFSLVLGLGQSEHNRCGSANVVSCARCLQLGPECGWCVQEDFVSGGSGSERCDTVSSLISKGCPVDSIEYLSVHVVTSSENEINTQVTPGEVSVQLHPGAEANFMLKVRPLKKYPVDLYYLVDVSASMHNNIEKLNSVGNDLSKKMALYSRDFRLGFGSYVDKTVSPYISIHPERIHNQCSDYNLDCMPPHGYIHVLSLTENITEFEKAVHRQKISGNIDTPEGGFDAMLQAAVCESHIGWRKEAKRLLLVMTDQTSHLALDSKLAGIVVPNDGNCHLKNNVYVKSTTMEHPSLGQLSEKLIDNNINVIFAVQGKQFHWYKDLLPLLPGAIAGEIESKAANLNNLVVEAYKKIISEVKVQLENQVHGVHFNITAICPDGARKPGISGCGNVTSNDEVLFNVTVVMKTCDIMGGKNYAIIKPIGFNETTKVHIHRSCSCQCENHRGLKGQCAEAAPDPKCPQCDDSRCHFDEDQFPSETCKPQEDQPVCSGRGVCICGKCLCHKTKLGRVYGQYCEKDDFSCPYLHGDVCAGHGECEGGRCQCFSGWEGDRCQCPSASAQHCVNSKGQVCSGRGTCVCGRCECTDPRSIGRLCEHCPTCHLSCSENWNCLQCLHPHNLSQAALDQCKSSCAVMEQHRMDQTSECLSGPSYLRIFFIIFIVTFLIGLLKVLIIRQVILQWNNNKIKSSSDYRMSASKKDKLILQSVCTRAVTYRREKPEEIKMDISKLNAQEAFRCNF
Put plainly: SPR 25C.
With B1, the Kd was < 100 pM and 137 pM.

The molecule B2 returned a Kd below 200 pM.

In turn, B3 showed a Kd of 489 pM.
